Numbering of substitutions follows the chain as printed.
T1: human OX40-Fc (R&D Systems cat no. 3388-OX) (human, UniProt P43489 29-216)
T1 construct: Bought protein; not shown: Fc tag
T1 sequence (looked up): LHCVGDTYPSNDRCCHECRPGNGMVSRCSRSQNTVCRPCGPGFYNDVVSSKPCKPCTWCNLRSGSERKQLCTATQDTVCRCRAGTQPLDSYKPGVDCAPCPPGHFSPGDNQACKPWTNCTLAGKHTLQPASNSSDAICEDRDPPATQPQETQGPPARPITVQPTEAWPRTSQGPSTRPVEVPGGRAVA

T2: human GITR-Fc (R&D Systems cat no. 689-GR) (human, UniProt Q9Y5U5 26-161)
T2 construct: Bought protein; also called GITR (Glucocorticoid-induced TNFR-related); not shown: Fc tag
T2 sequence (looked up): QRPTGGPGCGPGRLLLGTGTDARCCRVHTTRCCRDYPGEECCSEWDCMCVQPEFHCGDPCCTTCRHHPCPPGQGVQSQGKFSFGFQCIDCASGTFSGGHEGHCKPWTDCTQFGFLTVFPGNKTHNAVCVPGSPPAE

T3: mouse CD137Fc protein (Acro Biosystems 41B-M5258) (mouse, UniProt P20334 24-187)
T3 construct: Bought protein; also called mouse CD137 protein; not shown: Fc tag, detected with anti human-Fc
T3 sequence (looked up): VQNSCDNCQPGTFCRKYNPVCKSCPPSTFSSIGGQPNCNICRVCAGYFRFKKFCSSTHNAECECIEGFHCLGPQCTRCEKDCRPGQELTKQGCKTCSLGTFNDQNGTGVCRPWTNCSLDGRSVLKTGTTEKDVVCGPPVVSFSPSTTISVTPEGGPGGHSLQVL

B1: Humabody VH 1.11 (VHH)
VH: EVQLVESGGGLVQPGGSLRLSCEASGFTFSDYWMNWARQAPGKGLEWVANIKEDGSEKYYVDSVEGRFTISRDNAKNSTYLQMNSLRAEDTAVYYCARGGAGYSMSHYGMDVWGQGTTVTVSSHHHHHH
notes: human single VH domain
B2: Humabody VH 2.1 (VHH)
VH: EVQLVESGGGLVKPGGSLRVSCAASGFTFSDYYMSWFRQAPGKGLEWVSYISGSGDIIDYADSVKGRFTISRDNAKNSLYLQMNNLRAEDTAVYHCAREDSRLTGTTDFDNWGQGTLVTVSSHHHHHH
notes: human single VH domain
B3: Humabody VH 2.8 (VHH)
VH: B2 VH with V20L, T28A, Y50H, D56T, I57T, N85S, L103M, T104P
notes: human single VH domain
B4: Humabody VH 2.9 (VHH)
VH: B2 VH with V20L, S35T, V48I, I57T, D62E, N85S, L103I, T104A, Q114P
notes: human single VH domain
B5: Humabody VH 2.14 (VHH)
VH: EVQLVESGGGLVKPGGSLRLSCAASGFTFSDYYMTWFRQAPGKGLEWISYISGSGDTIDYAESVKGRFTISRDNAKNSLYLQMNSLRAEDTAVYYCAREDIRMPGTTDFDHWGQGTLVTVSSHHHHHH
notes: human single VH domain
B6: Humabody VH 1.78 (VHH)
VH: QVQLVESGGGLVQPGGSLRLSCAATGFTLSNYWMNWVRQAPGKGLEWVANINQDGSERYYVDSVKGRFTISRDNAKNSLYLQMSSLRAEDTAVYFCARGGEGYGVDHYGLDVSGQGTTVTVSSHHHHHH
notes: human single VH domain
B7: Humabody VH 1.18 (VHH)
VH: EVQLVESGGGLVQPGGSLRLSCAASGFTFSTHWMNWARQAPGKELEWVANINQDGSEKYYVDSVEGRFTISRDNANNSLYLQMNSLRAEDTAVYYCARGGVGYGDSHFGMDVWGLGTTVTVSSHHHHHH
notes: human single VH domain
B8: Humabody VH 1.1 (VHH)
VH: EVQLVESGGGLVQPGGSLRLSCAASGFTFSSHWMTWFRQAPGKGLEWVAHIKEDGSEKYYEDSVEGRFTVSRDNAKNSVYLQMNSLRAEDTAVYYCARGGDGYSDSHFGVDVWGQGTTVTVSSHHHHHH
notes: human single VH domain; also called single domain antibody 1.1
B9: Humabody VH 1.52 (VHH)
VH: EVQLVESGGGLVQIGGSLRLSCAASGFTFSKYWMIWVRQAPEKGLEWVANINQDGSEKYYVDSVEGRFTISRDNANNSLFLQMNSLRAEDTAVYYCARGGDDYSISHFGMDVSGQGTRVTVSSHHHHHH
notes: human single VH domain

biological target: T4, human CD137 expressed on the surface of CHO cells (human, UniProt Q07011 24-255); experiment: FMAT ligand inhibition, CD137 Ligand on CHO human CD137 cells
T4 construct: Also used for the Jurkat reporter cells that express human CD137 (functional rows); also called CHO human CD137 cells; CHO huCD137
T4 sequence (Q07011 24-255 limits assumed): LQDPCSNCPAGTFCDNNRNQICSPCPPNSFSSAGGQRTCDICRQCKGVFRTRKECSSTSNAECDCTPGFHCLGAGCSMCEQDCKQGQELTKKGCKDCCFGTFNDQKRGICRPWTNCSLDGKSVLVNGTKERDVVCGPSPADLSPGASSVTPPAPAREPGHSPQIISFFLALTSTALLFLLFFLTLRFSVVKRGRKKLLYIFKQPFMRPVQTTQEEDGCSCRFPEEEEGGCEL
Method in brief: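 Purified Humabody VH was tested in an FMAT format for blocking human CD137 ligand binding to CHO cells expressing human CD137. FL2 median fluorescence was measured and background from excess non-Fc-tagged competitor wells subtracted. Signal was expressed as % of total binding control.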

Row | Binder | IC50
1 | B1 | 1.6 nM
2 | B2 | 5.7 nM
3 | B3 | 19 nM
4 | B4 | 2 nM
5 | B5 | 2 nM
6 | B6 | 1.5 nM
7 | B7 | 1.2 nM
8 | B8 | 1.1 nM
9 | B9 | 1.2 nM

biological target: T5, human CD137-human Fc chimeric protein (Acro Biosystems cat no. 41B-H5258) (human, UniProt Q07011 24-186); experiment: BLI (Octet RED384), CD137-Fc on Protein G sensors, 1:1 model
T5 construct: Bought protein; The Octet Protein G and Biacore experiments name no catalogue number; also called human CD137Fc recombinant protein; human CD137-Fc recombinant protein; not shown: human IgG1 Fc tag
Experimental: Binding kinetics of purified VH, bivalent VH and trivalent VH molecules were measured on a ForteBio Octet RED 384 instrument. CD137-Fc tagged protein was diluted to 3 μg/ml in kinetics buffer (0.1% BSA, 0.02% Tween, 1×PBS) and coupled to Protein G biosensors (ForteBio cat no. 18-5082) via the Fc tag. VH were serially diluted (typically 1:2 dilution series starting with 50 nM, VH at the highest concentration) and binding to the CD137-Fc-coupled Protein G biosensors measured. Binding kinetics were determined from the (blank subtracted) sensor gram trace using 1:1 binding models and ForteBio Octet Data Analysis 9.0 software. Example kinetic and binding affinity data obtained is shown Table 10 (monovalent VH) and FIG. 1 (bivalent and trivalent molecules).

Row | Binder | Kd | koff | kon
10 | B1 | 2.5 nM | 0.00148 s⁻¹ | 596000 M⁻¹ s⁻¹
11 | B2 | 2.9 nM | 0.00388 s⁻¹ | 1.35e+06 M⁻¹ s⁻¹
12 | B3 | 5.3 nM | 0.00616 s⁻¹ | 1.17e+06 M⁻¹ s⁻¹
13 | B5 | 0.96 nM | 0.00157 s⁻¹ | 1.63e+06 M⁻¹ s⁻¹
14 | B6 | 0.72 nM | 0.000219 s⁻¹ | 304000 M⁻¹ s⁻¹
15 | B7 | 0.12 nM | 0.000625 s⁻¹ | 5.18e+06 M⁻¹ s⁻¹
16 | B8 | 0.34 nM | 0.00034 s⁻¹ | 989000 M⁻¹ s⁻¹
17 | B9 | 3.2 nM | 0.000963 s⁻¹ | 300000 M⁻¹ s⁻¹

biological target: T1, human OX40-Fc (R&D Systems cat no. …); experiment: ELISA, coated OX40-Fc
Experimental: (§1) Specificity of binding for CD137 over the tumour necrosis factor receptor family members OX40 and GITR (Glucocorticoid-induced TNFR-related) was determined using an ELISA assay. Nunc Maxisorp plates were coated with 1 ug/ml human CD137-Fc recombinant protein (Acro Biosystems 41B-H5258), human GITR-Fc (R&D Systems cat no. 689-GR) human OX40-Fc (R&D Systems cat no. 3388-OX) in sodium carbonate buffer overnight at 4° C. then washed twice with PBS. Non-specific protein interactions were blocked by incubation with 1% (w/v) skimmed milk powder (Marvel®) in PBS/0.1% Tween-20 for 1 hour at room temperature. Plates were washed twice with PBS then VH or antibody control (1 ug/ml) added for 1 hour at room temperature. Following three washes with PBS/0.1% Tween-20 a 1:1000 dilution of anti His-HRP (VH detection) or anti mouse-HRP (positive control mouse monoclonal antibody detection) was added in 1% Marvel/PBS/0.1% Tween-20. The detection antibodies were allowed to bind for 1 hour at room temperature then the plates were washed twice in PBS/0.1% Tween-20 and once in PBS. The ELISA was developed using TMB substrate and the reaction was stopped by the addition of 50 ul 0.5M H₂SO₄ solution. The absorbance at 450 nm was measured using the BMG Pherastar.

Row | Binder | binding result
18 | B1 | no binding (tested: 1 ug/ml)
19 | B2 | no binding (tested: 1 ug/ml)
20 | B3 | no binding (tested: 1 ug/ml)
21 | B4 | no binding (tested: 1 ug/ml)
22 | B5 | no binding (tested: 1 ug/ml)
23 | B6 | no binding (tested: 1 ug/ml)
24 | B7 | no binding (tested: 1 ug/ml)
25 | B8 | no binding (tested: 1 ug/ml)
26 | B9 | no binding (tested: 1 ug/ml)

biological target: T2, human GITR-Fc (R&D Systems cat no. …); experiment: ELISA, coated GITR-Fc
Experimental: as §1

Row | Binder | binding result
27 | B1 | no binding (tested: 1 ug/ml)
28 | B2 | no binding (tested: 1 ug/ml)
29 | B3 | no binding (tested: 1 ug/ml)
30 | B4 | no binding (tested: 1 ug/ml)
31 | B5 | no binding (tested: 1 ug/ml)
32 | B6 | no binding (tested: 1 ug/ml)
33 | B7 | no binding (tested: 1 ug/ml)
34 | B8 | no binding (tested: 1 ug/ml)
35 | B9 | no binding (tested: 1 ug/ml)

biological target: T5, human CD137-human Fc chimeric protein …; experiment: HTRF binding assay
Experimental: (§2) Binding to human CD137Fc recombinant protein (Acro Biosystems 41B-H5258), rhesus CD137Fc recombinant protein (Sino Biologicals cat no. 90847-K02H) and mouse CD137Fc protein (Acro Biosystems 41B-M5258) was measured using an HTRF Binding assay format. All reagents and serially diluted VH were prepared in assay buffer containing PBS, 0.1% BSA and 0.4M Potassium Fluoride. Samples or assay buffer (non-specific binding) were incubated with 0.5 nM human, rhesus or mouse CD137, 1 nM Anti human-Fc Cryptate PAb (Cisbio cat. no. 61HFCKLB) and 20 nM anti His-D2 (CisBio cat no 61HISDLA) in black 384-shallow well assay plates for a minimum of 3 hours at room temperature. Time-resolved fluorescent emission at 620 nm and 665 nm was measured following excitation at 337 nm on the BMG PHERAstar plate reader. The HTRF ratio were calculated ((665 nm emission/620 nm emission)*10000) and the data corrected for (non-specific binding) to give the specific binding signal. VH bound to human and rhesus CD137 but not to mouse CD137 protein.

Row | Binder | EC50
36 | B1 | 0.58 nM
37 | B2 | 3.7 nM
38 | B3 | 3.1 nM
39 | B4 | 1.3 nM
40 | B5 | 1.2 nM
41 | B6 | 0.21 nM
42 | B7 | 0.45 nM
43 | B8 | 0.26 nM
44 | B9 | 0.48 nM

biological target: T3, mouse CD137Fc protein (Acro Biosystems …); experiment: HTRF binding assay
Experimental: as §2

Row | Binder | binding result
45 | B1 | no binding
46 | B2 | no binding
47 | B3 | no binding
48 | B4 | no binding
49 | B5 | no binding
50 | B6 | no binding
51 | B7 | no binding
52 | B8 | no binding
53 | B9 | no binding
